For one molecule, Kd results are on record in PMC10201421.

The series concerns the target CTD (nucleocapsid C-terminal RNA binding domain) (SARS-CoV-2, UniProt P0DTC9 247-364). Put plainly: ITC.

For GGUUCACCGAGGCCACGCGGAGUACGAUCGAGUGUACAGUGAACC (structured_RNA) [s2m-CoV-2], the Kd (commonly the equilibrium constant for the complex coming apart) was found to be 600 ± 200 nM.
